# Patent US20260158095A1, “PLANT EXTRACT AND USE THEREOF IN TOPICAL COMPOSITIONS” (TERM HELVET SA, priority 2021, published 2026)
# Test system: human keratinocyte culture
# Experiment: Filopodia formation in human keratinocyte culture (rhodamine-phalloidin staining, fluorescence microscopy)
# Assay type: cell-based
# Conditions: human keratinocytes
# Experimental: Table 2 indicates the intensity of filopodia formation (number and surface area) in vitro in four keratinocyte cultures under four operating conditions, after treatment with: • a solvent, • HB-EGF (heparin-binding epidermal growth factor), • Picrorhiza kurroa extract obtained without hydrolysis, and • Picrorhiza kurroa extract obtained following hydrolysis.
# The test is performed using a human keratinocyte culture divided into four batches. Cells are treated for 1 h with the products to be tested, fixed in 4% formalin, and then stained with rhodamine-conjugated α-phalloidin (α-phalloidin has high affinity for actin filaments, and its conjugation to rhodamine makes actin filaments fluorescent [540 nm; 565 nm]). The cell morphology is then analyzed under a fluorescence microscope (FIG. 2). • A, solvent, negative (no stimulation); • B, HB-EGF (heparin-binding epidermal growth factor), reference epidermal trophic factor, 5 ng/ml; • C, Picrorhiza kurroa extract obtained without hydrolysis, 100 μg/ml; • D, Picrorhiza kurroa extract obtained following hydrolysis, 100 μg/ml.
molecule,measurement,setting,value
"HB-EGF: heparin-binding epidermal growth factor, reference epidermal trophic factor, positive control (protein, UniProt Q99075 63-148, looked up) Heparin-binding EGF-like …: DLQEADLDLLRVTLSSKPQALATPNKEEHGKRKKKGKGLGKKRDPCLRKYKDFCIHGECKYVKELRAPSCICHPGYHGERCHGLSL",Visual evaluation of the production of filopodia (scale from 0 to 3),"5 ng/ml, 1 h treatment",3
same,Intensity of filopodia formation (effect in words),"HB-EGF 5 ng/ml, extracts 100 μg/ml, 1 h",intense effect
